Laboratory results reported in the Human Domainome abundance scans (Beltran et al. 2025).
± gives the uncertainty stated by the source.

B1: Bromodomain adjacent to zinc finger domain protein 2B, residues 1927 to 1982; numbered along this chain, Q9UIF8 (parent)
chain: KSIMKVYCQICRKGDNEELLLLCDGCDKGCHTYCHRPKITTIPDGDWFCPACIAKA

Variants of: B1
Experiment: abundance fitness (aPCA) (normalised: wild type 0, dead -1); higher = more abundant; growth selection in yeast, the domain comes from the species named
Settings: Homo sapiens

Row | Variant | abundance fitness
1 | K28Q | 0.094 ± 0.19
2 | K28M | -0.002 ± 0.12
3 | K28W | 0.008 ± 0.1
4 | K28G | -0.02 ± 0.079
5 | K28E | 0.034 ± 0.11
6 | F48G | -0.06 ± 0.069
7 | F48Y | 0.039 ± 0.16
8 | F48A | 0.021 ± 0.089
9 | F48H | -0.029 ± 0.15
10 | F48L | -0.064 ± 0.097
11 | F48E | -0.028 ± 0.1
12 | L20K | -0.138 ± 0.14
13 | L20G | -0.509 ± 0.11
14 | L20M | -0.009 ± 0.13
15 | L20Q | -0.34 ± 0.14
16 | L20W | -0.354 ± 0.14
17 | H31L | -0.926 ± 0.1
18 | H31F | -0.954 ± 0.2
19 | H31K | -0.5 ± 0.13
20 | H31E | -0.753 ± 0.12
21 | G14I | -0.23 ± 0.31
22 | G14R | 0.018 ± 0.068
23 | G14T | 0.046 ± 0.12
24 | I53K | -0.089 ± 0.14

Row | Variant | abundance fitness
25 | I53G | -0.03 ± 0.065
26 | I53D | -0.006 ± 0.12
27 | I53P | 0.118 ± 0.15
28 | I53N | -0.242 ± 0.15
29 | E17Y | -0.409 ± 0.26
30 | E17S | -0.015 ± 0.12
31 | E17M | -0.052 ± 0.14
32 | E17C | 0.005 ± 0.14
33 | E17I | -0.127 ± 0.24
34 | E17D | -0.038 ± 0.2
35 | I3N | 0.105 ± 0.15
36 | I3Y | -0.327 ± 0.16
37 | I3V | -0.079 ± 0.064
38 | I3C | -0.129 ± 0.14
39 | I3M | -0.088 ± 0.11
40 | I3R | -0.125 ± 0.066
41 | M4E | -0.184 ± 0.12
42 | M4T | -0.06 ± 0.11
43 | M4L | -0.145 ± 0.082
44 | M4R | -0.157 ± 0.08
45 | M4A | -0.316 ± 0.086
46 | M4S | -0.161 ± 0.091
47 | T41S | -0.091 ± 0.094
48 | T41P | 0.074 ± 0.16

Row | Variant | abundance fitness
49 | T41R | -0.048 ± 0.072
50 | T41W | -0.167 ± 0.11
51 | T41V | -0.057 ± 0.074
52 | T41Q | -0.018 ± 0.17
53 | T41K | 0.085 ± 0.24
54 | T40S | -0.131 ± 0.079
55 | T40E | -0.026 ± 0.12
56 | T40N | -0.232 ± 0.14
57 | K1D | -0.199 ± 0.2
58 | K1A | -0.398 ± 0.35
59 | K1Y | -0.318 ± 0.34
60 | Y33F | -0.154 ± 0.17
61 | Y33K | -0.123 ± 0.1
62 | Y33T | 0.089 ± 0.1
63 | Y33S | -0.086 ± 0.077
64 | C49L | -1.04 ± 0.13
65 | C49R | -0.822 ± 0.073
66 | C49D | -0.244 ± 0.16
67 | C49N | -0.816 ± 0.24
68 | C49A | -0.82 ± 0.16
69 | C49Q | -0.959 ± 0.16
70 | C49V | -1.03 ± 0.13
71 | C49Y | -1.11 ± 0.14
72 | I42P | -0.043 ± 0.11

Row | Variant | abundance fitness
73 | I42Y | -0.093 ± 0.18
74 | I42L | -0.015 ± 0.08
75 | I42R | -0.054 ± 0.073
76 | I42G | -0.048 ± 0.077
77 | E18R | -0.055 ± 0.074
78 | E18W | -0.266 ± 0.12
79 | E18A | -0.011 ± 0.096
80 | E18T | -0.011 ± 0.1
81 | E18K | 0.051 ± 0.16
82 | E18C | -0.235 ± 0.13
83 | D15L | -0.362 ± 0.12
84 | D15A | -0.234 ± 0.089
85 | D15G | -0.099 ± 0.068
86 | L22P | -0.126 ± 0.14
87 | D27E | 0.109 ± 0.12
88 | D27G | 0.023 ± 0.065
89 | D27W | -0.069 ± 0.088
90 | D27V | -0.222 ± 0.084
91 | D27T | -0.08 ± 0.11
92 | D27N | -0.096 ± 0.11
93 | N16Y | -0.032 ± 0.15
94 | N16G | -0.014 ± 0.082
95 | N16D | 0.046 ± 0.21
96 | N16E | 0.018 ± 0.14

Row | Variant | abundance fitness
97 | N16F | -0.329 ± 0.15
98 | N16T | -0.017 ± 0.1
99 | N16A | -0.125 ± 0.096
100 | C8M | -0.807 ± 0.34
101 | C8E | -0.836 ± 0.15
102 | C8P | -0.686 ± 0.17
103 | C8G | -0.916 ± 0.073
104 | D44R | -0.086 ± 0.082
105 | D44W | -0.205 ± 0.12
106 | D44Q | -0.282 ± 0.24
107 | D44G | -0.017 ± 0.077
108 | P50L | -0.71 ± 0.4
109 | P50R | 0.183 ± 0.35
110 | C26L | -0.819 ± 0.088
111 | C26R | -0.674 ± 0.069
112 | C26A | -0.598 ± 0.11
113 | C26E | -0.676 ± 0.12
114 | C26S | -0.616 ± 0.089
115 | C26T | -0.678 ± 0.11
116 | C26P | -0.75 ± 0.14
117 | C26Y | -0.706 ± 0.13
118 | C26N | -0.753 ± 0.2
119 | C26V | -0.612 ± 0.1
120 | G25H | -0.124 ± 0.17

Row | Variant | abundance fitness
121 | G25F | -0.33 ± 0.19
122 | G25S | -0.149 ± 0.081
123 | L19I | -0.125 ± 0.18
124 | L19T | -0.1 ± 0.11
125 | L19D | -0.138 ± 0.13
126 | L19Y | -0.067 ± 0.18
127 | L19R | -0.078 ± 0.097
128 | L19V | -0.011 ± 0.074
129 | L19W | -0.03 ± 0.11
130 | I39D | -0.194 ± 0.13
131 | I39N | 0.002 ± 0.18
132 | I39V | -0.031 ± 0.08
133 | I39C | 0.011 ± 0.12
134 | I39M | 0.039 ± 0.1
135 | I39H | -0.189 ± 0.18
136 | G29Y | -0.093 ± 0.15
137 | G29W | -0.147 ± 0.079
138 | G29H | -0.167 ± 0.17
139 | G29A | -0.061 ± 0.086
140 | L21M | -0.076 ± 0.13
141 | L21T | -0.042 ± 0.097
142 | C52A | -0.661 ± 0.11
143 | C52N | -0.523 ± 0.19
144 | C52F | -0.736 ± 0.21

Row | Variant | abundance fitness
145 | C52L | -0.891 ± 0.12
146 | D46H | -0.122 ± 0.12
147 | C11H | -0.85 ± 0.28
148 | C11T | -1.14 ± 0.17
149 | C11I | -0.912 ± 0.15
150 | C11P | -0.767 ± 0.11
151 | Q9Y | 0.029 ± 0.12
152 | Q9D | 0.028 ± 0.12
153 | Q9V | -0.149 ± 0.074
154 | Q9A | -0.108 ± 0.076
155 | Q9N | -0.041 ± 0.12
156 | Q9I | -0.164 ± 0.11
157 | Q9K | -0.146 ± 0.13
158 | Q9S | 0.07 ± 0.072
159 | H35V | -0.052 ± 0.083
160 | H35Q | -0.09 ± 0.097
161 | H35N | -0.09 ± 0.15
162 | H35G | -0.102 ± 0.075
163 | H35I | -0.019 ± 0.19
164 | H35P | -0.093 ± 0.11
165 | H35W | -0.18 ± 0.091
166 | H35L | 0.027 ± 0.065
167 | C23Y | -0.42 ± 0.18
